Laboratory results from patent US8529881B2, “Peptides for active anti-cytokine immunization” (Vaxconsulting, priority 2002, dated 2013).
“And” between values parts separate entries of the source, which are not always exact repeats. Identical values can stand only once. Positions of bridges follow the written chain, without caps; N, C: chain ends. No end group written: not given here.

Tests used:
[1] = target: T1, human IP10 (native cytokine) (Homo sapiens, UniProt P02778); experiment: ELISA of serum from immunized mice with native IP10; format: in vivo; conditions: serum day 60
T1 sequence (P02778 22-98): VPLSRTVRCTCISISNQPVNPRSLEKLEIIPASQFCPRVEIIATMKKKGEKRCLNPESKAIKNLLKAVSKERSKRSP

[2] = target: human IL12p40 (native cytokine) (Homo sapiens, UniProt P29460); conditions: in vivo
Chain of human IL12p40 (native cytokine) (P29460 23-328): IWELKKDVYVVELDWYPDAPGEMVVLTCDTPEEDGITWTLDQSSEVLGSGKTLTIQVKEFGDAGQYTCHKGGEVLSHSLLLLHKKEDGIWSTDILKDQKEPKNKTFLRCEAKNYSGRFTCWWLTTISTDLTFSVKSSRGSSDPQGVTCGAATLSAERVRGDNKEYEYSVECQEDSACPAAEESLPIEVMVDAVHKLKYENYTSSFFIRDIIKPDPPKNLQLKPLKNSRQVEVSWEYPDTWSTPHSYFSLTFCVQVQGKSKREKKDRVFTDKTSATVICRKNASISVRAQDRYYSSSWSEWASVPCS

[3] = target: T2, human IL4 (native cytokine) (Homo sapiens, UniProt P05112); experiment: ELISA of serum from immunized mice with native IL4; format: in vivo; conditions: serum day 60
T2 sequence (P05112 25-153): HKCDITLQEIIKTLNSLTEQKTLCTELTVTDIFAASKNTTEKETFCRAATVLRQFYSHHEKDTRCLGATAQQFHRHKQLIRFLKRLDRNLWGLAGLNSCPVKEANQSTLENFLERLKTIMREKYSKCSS

[4] = tested on: human vEGF (native cytokine); experiment: ELISA of serum from immunized mice with native vEGF; format: in vivo; conditions: serum day 60
[5] = target: T3, human IL18 (native cytokine) (Homo sapiens, UniProt Q14116); experiment: ELISA of serum from immunized mice with native IL18; format: in vivo; conditions: serum day 60
T3 sequence (Q14116 37-193): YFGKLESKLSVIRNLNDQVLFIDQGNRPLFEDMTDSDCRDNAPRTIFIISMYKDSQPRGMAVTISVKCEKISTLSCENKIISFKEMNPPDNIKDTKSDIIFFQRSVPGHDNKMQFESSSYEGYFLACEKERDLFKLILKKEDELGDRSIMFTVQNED

[6] = target: T4, human TGFβ2 (native cytokine) (Homo sapiens, UniProt P61812); experiment: ELISA of serum from immunized mice with native TGFβ2; format: in vivo; conditions: serum day 60
T4 sequence (P61812 303-414 limits assumed): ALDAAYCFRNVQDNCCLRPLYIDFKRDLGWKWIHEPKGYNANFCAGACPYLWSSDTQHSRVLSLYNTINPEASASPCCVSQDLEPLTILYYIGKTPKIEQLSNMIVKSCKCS

[7] = target: human IL10 (native cytokine) (Homo sapiens, UniProt P22301); experiment: ELISA of serum from immunized mice with native IL10; format: in vivo; conditions: serum day 60
Chain of human IL10 (native cytokine) (P22301 19-178): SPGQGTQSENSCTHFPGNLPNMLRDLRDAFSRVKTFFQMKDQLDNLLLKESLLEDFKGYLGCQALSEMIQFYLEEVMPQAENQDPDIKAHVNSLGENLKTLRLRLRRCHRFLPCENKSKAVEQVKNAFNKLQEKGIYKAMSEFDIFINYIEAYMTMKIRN

[8] = target: human TNFα (native cytokine) (Homo sapiens, UniProt P01375); experiment: ELISA of serum from immunized mice with native TNFα; format: in vivo; conditions: serum day 60
Chain of human TNFα (native cytokine) (P01375 77-233 limits assumed): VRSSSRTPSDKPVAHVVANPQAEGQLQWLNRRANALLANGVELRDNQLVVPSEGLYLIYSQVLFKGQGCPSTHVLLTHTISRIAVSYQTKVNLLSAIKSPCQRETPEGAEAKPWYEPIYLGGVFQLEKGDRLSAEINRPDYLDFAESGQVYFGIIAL

native TNFα cytokine = native TNFα cytokine (Homo sapiens, UniProt P01375); experiment: Neutralization of native TNFα by mouse serum, lysis of L929 cells; format: cell-based; conditions: for percentage inhibition of the lysis (neutralization of the TNFα): 50 units TNFα, 24 hours
Chain of native TNFα cytokine (P01375 77-233 limits assumed): as above
Experimental: The existence of antibodies neutralizing the native cytokine was evaluated as follows: 50 units of native TNFα cytokine are preincubated with serum from mice (immunized or control) diluted 1/200th over 2 hours at 37° C. The whole is then added to L929 cells, with 25,000 cells per microwell. The lysis of the cells is evaluated after 24 hours by staining with naphthol blue black (Sigma).

[9] = target: T5, human IL5 (native cytokine) (Homo sapiens, UniProt P05113); experiment: ELISA of serum from immunized mice with native IL5; format: in vivo; conditions: serum day 60
T5 sequence (P05113 20-134): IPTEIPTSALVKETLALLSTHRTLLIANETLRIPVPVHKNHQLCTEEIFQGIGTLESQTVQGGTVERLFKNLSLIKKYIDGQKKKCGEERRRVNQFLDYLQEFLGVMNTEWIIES

[10] = target: human IFNγ (native cytokine) (Homo sapiens, UniProt P01579); conditions: in vivo
Chain of human IFNγ (native cytokine) (P01579 24-161): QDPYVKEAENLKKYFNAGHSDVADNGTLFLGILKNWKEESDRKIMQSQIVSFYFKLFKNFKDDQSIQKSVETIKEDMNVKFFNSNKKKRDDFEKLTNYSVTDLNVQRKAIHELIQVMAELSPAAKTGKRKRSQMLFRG

IFNγ (native cytokine) = format: cell-based, human

KKKGEKRCLNPESKA [Example 9]
average absorbance, ELISA native IP10 ([1]; Average of 5 mice): 1.07 | average absorbance, ELISA native IP10 ([1]; Mouse 1): 1.16 | average absorbance, ELISA native IP10 ([1]; Mouse 2): 0.98 | average absorbance, ELISA native IP10 ([1]; Mouse 3): 1.24 | average absorbance, ELISA native IP10 ([1]; Mouse 4): 1.09 | average absorbance, ELISA native IP10 ([1]; Mouse 5): 0.88

KKEDGIWSTDILKDQKEPKNKTFLRCE [Example 7]
average absorbance, ELISA native IL12p40 [2]: 0.95 and 1.06 and 1.58 and 1.14 and 0.87 and 1.12

KQLIRFLKRLDRNLWGLAG (also: KLH conjugate via glutaraldehyde; listed as Homo sapiens) [Example 6, peptide corresponding to human IL4 coupled with KLH]
average absorbance, ELISA native IL4 ([3]; Average of 5 mice): 1.07 | average absorbance, ELISA native IL4 ([3]; Mouse 1): 1.06 | average absorbance, ELISA native IL4 ([3]; Mouse 2): 1.25 | average absorbance, ELISA native IL4 ([3]; Mouse 3): 0.95 | average absorbance, ELISA native IL4 ([3]; Mouse 4): 0.87 | average absorbance, ELISA native IL4 ([3]; Mouse 5): 1.24

KPHQGQHIGEMS (also: KLH conjugate via glutaraldehyde; listed as Homo sapiens) [Example 2, synthetic peptide originating from human vEGF coupled to KLH]
average absorbance, ELISA native vEGF ([4]; Average of 5 mice): 1.19 | average absorbance, ELISA native vEGF ([4]; Mouse 1): 1.50 | average absorbance, ELISA native vEGF ([4]; Mouse 2): 1.00 | average absorbance, ELISA native vEGF ([4]; Mouse 3): 0.86 | average absorbance, ELISA native vEGF ([4]; Mouse 4): 0.98 | average absorbance, ELISA native vEGF ([4]; Mouse 5): 1.63

KYFGKLESKLSVIRNLNDQVLFID (also: KLH conjugate via glutaraldehyde; listed as Homo sapiens) [Example 8, peptide originating from human IL18, K added, coupled with KLH]
average absorbance, ELISA native IL18 ([5]; Average of 5 mice): 1.35 | average absorbance, ELISA native IL18 ([5]; Mouse 1): 1.85 | average absorbance, ELISA native IL18 ([5]; Mouse 2): 1.13 | average absorbance, ELISA native IL18 ([5]; Mouse 3): 0.99 | average absorbance, ELISA native IL18 ([5]; Mouse 4): 1.24 | average absorbance, ELISA native IL18 ([5]; Mouse 5): 1.54

DTILYYIGKTPKIE (also: KLH conjugate via carbodiimide; listed as Homo sapiens) [Example 11, peptide corresponding to human TGFβ2, D added, coupled with KLH]
average absorbance, ELISA native TGFβ2 ([6]; Average of 5 mice): 1.07 | average absorbance, ELISA native TGFβ2 ([6]; Mouse 1): 0.95 | average absorbance, ELISA native TGFβ2 ([6]; Mouse 2): 1.15 | average absorbance, ELISA native TGFβ2 ([6]; Mouse 3): 0.99 | average absorbance, ELISA native TGFβ2 ([6]; Mouse 4): 1.17 | average absorbance, ELISA native TGFβ2 ([6]; Mouse 5): 1.08

DECNMLRDLRDAFSRVKTFFQMKDQLDNC (disulfide 3-29 (inferred); also: KLH conjugate; listed as Homo sapiens) [Example 5, cyclic peptide originating from human IL10 coupled with KLH]
average absorbance, ELISA native IL10 ([7]; Average of 5 mice): 1.44 | average absorbance, ELISA native IL10 ([7]; Mouse 1): 1.94 | average absorbance, ELISA native IL10 ([7]; Mouse 2): 0.96 | average absorbance, ELISA native IL10 ([7]; Mouse 3): 1.85 | average absorbance, ELISA native IL10 ([7]; Mouse 4): 0.97 | average absorbance, ELISA native IL10 ([7]; Mouse 5): 1.5

KYQAEGQLQWLNRRANALLANGVELRDNQL (also: KLH conjugate via diazobenzidine; listed as Homo sapiens) [Example 3, synthetic peptide originating from human TNFα, K and Y added, coupled to KLH]
average absorbance, ELISA native TNFα ([8]; Average of 5 mice): 1.31 | average absorbance, ELISA native TNFα ([8]; Mouse 1): 1.64 | average absorbance, ELISA native TNFα ([8]; Mouse 2): 1.14 | average absorbance, ELISA native TNFα ([8]; Mouse 3): 1.96 | average absorbance, ELISA native TNFα ([8]; Mouse 4): 1.02 | average absorbance, ELISA native TNFα ([8]; Mouse 5): 0.78 | percentage inhibition of the lysis (neutralization of the TNFα) (native TNFα cytokine; Average of 5 mice, serum diluted 1/200th): 61% | percentage inhibition of the lysis (neutralization of the TNFα) (native TNFα cytokine; Mouse 1, serum diluted 1/200th): 88% | percentage inhibition of the lysis (neutralization of the TNFα) (native TNFα cytokine; Mouse 2, serum diluted 1/200th): 12% | percentage inhibition of the lysis (neutralization of the TNFα) (native TNFα cytokine; Mouse 3, serum diluted 1/200th): 93% | percentage inhibition of the lysis (neutralization of the TNFα) (native TNFα cytokine; Mouse 4, serum diluted 1/200th): 36% | percentage inhibition of the lysis (neutralization of the TNFα) (native TNFα cytokine; Mouse 5, serum diluted 1/200th): 79% | neutralization of the TNFα, result in words (native TNFα cytokine; serum of immunized mice vs controls): responses are observed for the immunized mice

KLQEFLGVMNTEWI (also: KLH conjugate via glutaraldehyde; listed as Homo sapiens) [Example 10, peptide corresponding to human IL5, K added, coupled with KLH]
average absorbance, ELISA native IL5 ([9]; Average of 5 mice): 1.26 | average absorbance, ELISA native IL5 ([9]; Mouse 1): 1.25 | average absorbance, ELISA native IL5 ([9]; Mouse 2): 1.21 | average absorbance, ELISA native IL5 ([9]; Mouse 3): 1.87 | average absorbance, ELISA native IL5 ([9]; Mouse 4): 1.10 | average absorbance, ELISA native IL5 ([9]; Mouse 5): 0.88

KKYFNAGHSDVADNGTLFLGILKN [Example 4]
average absorbance, ELISA native IFNγ [10]: 1.56 and 1.05 and 0.98 and 1.80 and 1.64 and 1.41 | neutralization of the IFNγ, result in words (IFNγ (native cytokine)): inhibitions are observed for the immunized mice
